Assay results published in patent publication US20170173105A1, “AUTOASSEMBLING PEPTIDES FOR THE TREATMENT OF PULMONARY LEAKAGE” (3-D MATRIX, LTD., priority 2014, published 2017).

Columns and labels:
[1] = Appearance of 1.5% peptide solutions with various salts at room temperature; assay type: physicochemical; settings: for Appearance: room temperature
Method: The effect of salt ionic strength level on the properties of peptide solutions was evaluated to identify optimized salt ionic strength levels for the peptides as described herein. Increasing the salt ionic strength level of PuraMatrix® and other peptides may generally improve its function and mechanical strength for various clinical applications. To adjust the salt ionic strength of the peptide solutions by way of example, various salt buffer solutions including NaCl, KCl, MgCl2, CaCl2 and DPBS (10×) were added to 2 mL of 1.5% peptide solutions.

[2] = Rheological properties of peptide solutions and hydrogels after salt ionic strength adjustment; assay type: physicochemical
Method: Based on the visual observation of the effect of salt ionic strength on the properties of the peptide solutions, the effect on the rheological properties of the peptide solutions after adjusting their ionic strength level with NaCl to 0.7 M (PuraMatrix®), 0.2 M (KLD12) or 0.02 M (IEIK13), which is closely below the critical ionic strength at which each peptide becomes cloudy, was evaluated. If the ionic strength levels with NaCl of peptide solutions are higher than 0.9 M (PuraMatrix®), 0.3 M (KLD12) or 0.03 M (IEIK13), the peptide solution begin phase separation becoming cloudy and weak. The rheological property of PuraMatrix®, KLD12 and IEIK13 solutions was higher after adjusting their ionic strength level with NaCl to 0.7 M (PuraMatrix®), 0.2 M (KLD12) or 0.02 M (IEIK13), The results are shown in FIG. 10 for KLD12 1%, FIG. 11 for IEIK13 1%, and FIG. 12 for PuraMatrix® 1%, respectively. Frequency sweep tests were performed from 1 rad/s to 10 rad/s at 1 Pa.
Based on the results of the effect on the rheological properties of the peptide solutions after adjusting their ionic strength level with NaCl to 0.7 M (PuraMatrix®), 0.2 M (KLD12) or 0.02 M (IEIK13), the effect on the rheological properties of the peptide solution at various salt ionic strengths was evaluated. […] The results are shown in FIG. 13 for PuraMatrix® 1% solution and in FIG. 14 for IEIK13 1% solution. Frequency sweep tests were performed from 1 rad/sec to 10 rad/sec at 1 Pa and the storage modulus at 1 rad/sec was selected for data.
Based on the results of the effect on the rheological properties of the peptide solutions after adjusting their ionic strength levels, the effect on the rheological properties of the peptide hydrogels after DMEM treatment for 10 min was evaluated. […] The results are shown in FIG. 15 for PuraMatrix® 1% hydrogels and in FIG. 16 for IEIK13 1% hydrogels, both after DMEM treatment for 10 min Frequency sweep tests were performed from 1 rad/sec to 10 rad/sec at 1 Pa and the storage modulus at 1 rad/sec was selected for data.
Based on the results of the effect on the rheological properties of the peptide solutions and hydrogels after adjusting their ionic strength levels with NaCl, the effect of various salts (KCl, MgCl2, and CaCl2) was also evaluated. The rheological property of PuraMatrix® solutions increases with ionic strength adjustment at 0.15 M of all the salts. Increases of the rheological property of PuraMatrix® solutions with various salts were not predominantly different. However, increases of the rheological property of PuraMatrix® solutions may vary depending on the salting out constant, K of each salt. Constant K is a constant in Cohen's equation: log S=B−KI, where S is solubility, B is idealized solubility, K is salting out constant, and I is ionic strength. With a higher value of constant K and ionic strength of salts, solubility of the peptide may decrease resulting in strong peptide self-assembly with increased hydrophobic effect and higher rheological properties of the peptide solution. The constant K of NaCl may be higher than the other salts. […] The results are shown in FIG. 17 for PuraMatrix® 1% solution before DMEM treatment, and in FIG. 18 for PuraMatrix® 1% hydrogels after DMEM treatment for 10 min.
In accordance with one or more embodiments, IEIK13, KLD12, and PuraMatrix® may be dissolved both in salt buffer such as NaCl and at an elevated pH level adjusted with alkali salt buffer such as NaOH to keep their salt ionic strength under their critical salt points as well as their pH level to about 2.5˜4.0, so that they may have stiffer properties. With respect to PuraMatrix®, […] and IEIK13, the peptide solutions are still clear with 0.9% NaCl (ionic strength: 0.15 M) at pH 3.4 adjusted with NaOH. […] The effect of salt ionic strength and pH adjustment on the rheological properties of PuraMatrix® 2.5% solution are shown in FIG. 20. […]

In the case of “Arg-Ala-Asp-Ala-Arg-Ala-Asp-Ala-Arg-Ala-Asp-Ala-Arg-Ala-Asp-Ala [PuraMatrix ®]”, the Appearance ([1]; CaCl2 0 M, ionic strength 0 M, PuraMatrix 1.5%) is reported as “Clear, thick gel”, the Appearance ([1]; CaCl2 0.05 M, ionic strength 0.15 M, PuraMatrix 1.48%) is reported as “Clear, thick, stiffer gel” and the Appearance ([1]; CaCl2 0.1 M, ionic strength 0.3 M, PuraMatrix 1.45%) is reported as “Clear, thick, stiffer gel”. For the same substance, the Appearance ([1]; CaCl2 0.15 M, ionic strength 0.45 M, PuraMatrix 1.43%) was “Clear, thick, stiffer gel”, the Appearance ([1]; CaCl2 0.2 M, ionic strength 0.6 M, PuraMatrix 1.4%) was “Clear, thick, stiffer gel” and the Appearance ([1]; CaCl2 0.25 M, ionic strength 0.75 M, PuraMatrix 1.38%) was “Clear, thick, stiffer gel”. For the same substance, the Appearance ([1]; CaCl2 0.3 M, ionic strength 0.9 M, PuraMatrix 1.35%) was “Clear, thick, stiffer gel”, the Appearance ([1]; CaCl2 0.35 M, ionic strength 1.05 M, PuraMatrix 1.32%) was “Clear, thick, stiffer gel” and the Appearance ([1]; CaCl2 0.383 M, ionic strength 1.15 M, PuraMatrix 1.31%) was “Clear, thick, stiffer gel”. The Appearance ([1]; CaCl2 0.4 M, ionic strength 1.2 M, PuraMatrix 1.3%) was “Slightly cloudy, thick, stiffer gel”, the Appearance ([1]; CaCl2 0.417 M, ionic strength 1.25 M, PuraMatrix 1.29%) was “Slightly cloudy, brittle gel” and the Appearance ([1]; CaCl2 0.433 M, ionic strength 1.3 M, PuraMatrix 1.28%) was “Cloudy, phase-separated”. The Appearance ([1]; DPBS (pH 3.2) 0 M, ionic strength 0 M, PuraMatrix 1.5%) was “Clear, thick gel”, the Appearance ([1]; DPBS (pH 3.2) 0.15 M, ionic strength 0.15 M, PuraMatrix 1.35%) was “Clear, thick, stiffer gel” and the Appearance ([1]; DPBS (pH 3.2) 0.3 M, ionic strength 0.3 M, PuraMatrix 1.2%) was “Clear, thick, stiffer gel”. The Appearance ([1]; DPBS (pH 3.2) 0.45 M, ionic strength 0.45 M, PuraMatrix 1.05%) was “Clear, thick, stiffer gel”, the Appearance ([1]; DPBS (pH 3.2) 0.6 M, ionic strength 0.6 M, PuraMatrix 0.9%) was “Clear, thick, stiffer gel” and the Appearance ([1]; DPBS (pH 3.2) 0.75 M, ionic strength 0.75 M, PuraMatrix 0.75%) was “Clear, thick, stiffer gel”. The Appearance ([1]; DPBS (pH 3.2) 0.9 M, ionic strength 0.9 M, PuraMatrix 0.6%) was “Clear, thick, stiffer gel”, the Appearance ([1]; DPBS (pH 3.2) 0.95 M, ionic strength 0.95 M, PuraMatrix 0.55%) was “Slightly cloudy, brittle gel” and the Appearance ([1]; DPBS (pH 3.2) 1.0 M, ionic strength 1.0 M, PuraMatrix 0.5%) was “Cloudy, phase-separated”. For the same substance, the Appearance ([1]; KCl 0 M, ionic strength 0 M, PuraMatrix 1.5%) was “Clear, thick gel”, the Appearance ([1]; KCl 0.15 M, ionic strength 0.15 M, PuraMatrix 1.43%) was “Clear, thick, stiffer gel” and the Appearance ([1]; KCl 0.3 M, ionic strength 0.3 M, PuraMatrix 1.35%) was “Clear, thick, stiffer gel”. For the same substance, the Appearance ([1]; KCl 0.45 M, ionic strength 0.45 M, PuraMatrix 1.27%) was “Clear, thick, stiffer gel”, the Appearance ([1]; KCl 0.6 M, ionic strength 0.6 M, PuraMatrix 1.2%) was “Clear, thick, stiffer gel” and the Appearance ([1]; KCl 0.75 M, ionic strength 0.75 M, PuraMatrix 1.13%) was “Clear, thick, stiffer gel”. The Appearance ([1]; KCl 0.9 M, ionic strength 0.9 M, PuraMatrix 1.05%) was “Clear, thick, stiffer gel”, the Appearance ([1]; KCl 0.95 M, ionic strength 0.95 M, PuraMatrix 1.03%) was “Clear, thick, stiffer gel” and the Appearance ([1]; KCl 1.0 M, ionic strength 1.0 M, PuraMatrix 1.0%) was “Clear, thick, stiffer gel”. For the same substance, the Appearance ([1]; KCl 1.05 M, ionic strength 1.05 M, PuraMatrix 0.98%) was “Slightly cloudy, thick, stiffer gel”, the Appearance ([1]; KCl 1.1 M, ionic strength 1.1 M, PuraMatrix 0.95%) was “Slightly cloudy, brittle gel” and the Appearance ([1]; KCl 1.15 M, ionic strength 1.15 M, PuraMatrix 0.93%) was “Cloudy, phase-separated”. For the same substance, the Appearance ([1]; MgCl2 0 M, ionic strength 0 M, PuraMatrix 1.5%) was “Clear, thick gel”, the Appearance ([1]; MgCl2 0.05 M, ionic strength 0.15 M, PuraMatrix 1.48%) was “Clear, thick, stiffer gel” and the Appearance ([1]; MgCl2 0.1 M, ionic strength 0.3 M, PuraMatrix 1.45%) was “Clear, thick, stiffer gel”. The Appearance ([1]; MgCl2 0.15 M, ionic strength 0.45 M, PuraMatrix 1.43%) was “Clear, thick, stiffer gel”, the Appearance ([1]; MgCl2 0.2 M, ionic strength 0.6 M, PuraMatrix 1.4%) was “Clear, thick, stiffer gel” and the Appearance ([1]; MgCl2 0.25 M, ionic strength 0.75 M, PuraMatrix 1.38%) was “Clear, thick, stiffer gel”. For the same substance, the Appearance ([1]; MgCl2 0.3 M, ionic strength 0.9 M, PuraMatrix 1.35%) was “Clear, thick, stiffer gel”, the Appearance ([1]; MgCl2 0.35 M, ionic strength 1.05 M, PuraMatrix 1.32%) was “Clear, thick, stiffer gel” and the Appearance ([1]; MgCl2 0.383 M, ionic strength 1.15 M, PuraMatrix 1.31%) was “Clear, thick, stiffer gel”. For the same substance, the Appearance ([1]; MgCl2 0.4 M, ionic strength 1.2 M, PuraMatrix 1.3%) was “Slightly cloudy, thick, stiffer gel”, the Appearance ([1]; MgCl2 0.417 M, ionic strength 1.25 M, PuraMatrix 1.29%) was “Slightly cloudy, brittle gel” and the Appearance ([1]; MgCl2 0.433 M, ionic strength 1.3 M, PuraMatrix 1.28%) was “Cloudy, phase-separated”. For the same substance, the Appearance ([1]; NaCl 0 M, ionic strength 0 M, PuraMatrix 1.5%) was “Clear, thick gel”, the Appearance ([1]; NaCl 0.15 M, ionic strength 0.15 M, PuraMatrix 1.43%) was “Clear, thick, stiffer gel” and the Appearance ([1]; NaCl 0.3 M, ionic strength 0.3 M, PuraMatrix 1.35%) was “Clear, thick, stiffer gel”. For the same substance, the Appearance ([1]; NaCl 0.45 M, ionic strength 0.45 M, PuraMatrix 1.27%) was “Clear, thick, stiffer gel”, the Appearance ([1]; NaCl 0.6 M, ionic strength 0.6 M, PuraMatrix 1.2%) was “Clear, thick, stiffer gel” and the Appearance ([1]; NaCl 0.75 M, ionic strength 0.75 M, PuraMatrix 1.13%) was “Clear, thick, stiffer gel”. The Appearance ([1]; NaCl 0.8 M, ionic strength 0.8 M, PuraMatrix 1.10%) was “Clear, thick, stiffer gel”, the Appearance ([1]; NaCl 0.85 M, ionic strength 0.85 M, PuraMatrix 1.08%) was “Clear, thick, stiffer gel” and the Appearance ([1]; NaCl 0.9 M, ionic strength 0.9 M, PuraMatrix 1.05%) was “Slightly cloudy, brittle gel”. For the same substance, the Appearance ([1]; NaCl 0.95 M, ionic strength 0.95 M, PuraMatrix 1.03%) was “Cloudy, phase-separated”, the Appearance ([1]; NaCl 1.0 M, ionic strength 1.0 M, PuraMatrix 1.0%) was “Cloudy, phase-separated” and the “apparent stiffness on salt ionic strength increase” value ([1]; up to the ionic strength at which solutions stay clear) was “increased”. The “rheological property of solutions with NaCl compared with KCl and CaCl2” value ([2]; 0.15 M ionic strength, 1%) was “slightly higher”, the “appearance of peptide solutions with salt and pH adjustment” value ([2]; 0.9% NaCl (ionic strength: 0.15 M) at pH 3.4 adjusted with NaOH) was “still clear” and the “rheological property of hydrogels after DMEM treatment at various ionic strengths” value ([2]; 1% hydrogels, DMEM treatment for 10 min) was “increased with ionic strength adjustment up to 0.7 M, while decreases above 0.7 M”. The “rheological property of 1% solutions at various salt ionic strengths” value ([2]; 1% solution, storage modulus at 1 rad/sec) was “increases with ionic strength adjustment up to 0.7 M, while decreases above 0.7 M”, the “rheological property with salt and pH adjustment” value ([2]; 2.5% solution, 0.9% NaCl (0.15 M) at pH 3.4 vs control and only NaCl 0.9%) was “stiffer” and the “ionic strength level with NaCl at which the peptide solution begins phase separation becoming cloudy and weak” value ([2]; NaCl) was “higher than 0.9 M”. For the same substance, the “rheological property of solutions after ionic strength adjustment with NaCl” value ([2]; NaCl to 0.7 M (PuraMatrix®), 0.2 M (KLD12) or 0.02 M (IEIK13), 1% solutions) was “higher”, the “gelation with DMEM treatment” value ([2]; above 0.9 M of NaCl ionic strength) was “no gelation” and the “rheological property of solutions with various salts” value ([2]; ionic strength adjustment at 0.15 M of all the salts (NaCl, KCl, MgCl2, CaCl2), 1%) was “increases”.
